Experimental data: patent US20100285583A1, “COMPOUNDS AND METHODS FOR INHIBITING PLATELET AGGREGATION” (priority 2009, published 2010)

Experiments:
[1] = tested on: Human washed platelets; test: Platelet immunofluorescence analysis (subcellular localization); assay type: cell-based; conditions: 1.9 μM
Protocol: Washed platelets (50 μl of […] in Tyrode's albumin buffer) were incubated with 1.9 μM of PTB domain constructs for 5 min at room temperature in the presence of 0.25 g/L fibrinogen. Aggregation was initiated by the addition of 10 μM TRAP. Reactions were incubated at room temperature unless otherwise indicated. Platelets were fixed with 0.4 mL of 3.7% formaldehyde in Phosphate Buffered Saline (PBS) for 30 min. Next, 20% goat serum was added to the fixed platelets, and 60% of the total fixed reaction was centrifuged using a Shandon cytospinner onto a Shandon coated cytoslide to achieve the appropriate platelet density for analysis. Slides were then washed twice with PBS for 10 min. Platelets were permeabilized with 0.5% Triton X-100 in PBS for 10 min and then blocked with 20% goat serum in PBS with 0.1% Triton X-100 for 1 h at room temperature. Platelets were washed 3 times with PBS with 0.1% Triton for 10 minutes and further incubated overnight with the anti-Dab2 antibody 1:100 (anti-p96; BD Transduction) in PBS with 0.1% Triton X-100 and 10% goat serum at 4° C. in a humidity chamber. Platelets were then washed and incubated with the anti-mouse Cy-3 conjugated goat antibody 1:250 and Alexa488 conjugated phalloidin (25 μg/mL) in PBS with 0.1% Triton X-100 and 10% goat serum for 2 h. Platelets were washed again and observed on an Olympus IX71 microscope using the Softworx Applied Precision software.
Mean pixel intensity was determined for 400 platelets from four fields each for 3 min and 10 min of treatments by manually drawing circles around individual platelets using the 2D Polygon tool in the Softworx software. For each time point, a threshold of significant mean pixel intensity was defined for the experiment. The percentage of countable platelets to exceed the threshold was calculated for each field and the average of four fields was computed with standard deviation. The ratio of internalization:binding is the quotient of these averages for a treatment.

[2] = Competition SPR, PtdIns(4,5)P2 pre-incubated protein on sulfatide liposomes; conditions: 5 μM protein pre-incubated with increasing PtdIns(4,5)P2; read-out: IC50 of PtdIns(4,5)P2 competition for sulfatide binding
Protocol: Surface plasmon resonance (SPR) binding experiments were performed on a BIAcore X instrument using L1 sensorchips coated with ˜0.5 mM of mixed sulfatides or PtdIns(4,5)P2 size calibrated liposomes. N-PTB domain or its mutants binding experiments were performed in a degassed solution containing 10 mM Tris-HCI (pH 7.4) and 150 mM NaCl. This buffer was used during equilibration, association and dissociation phases. Proteins were added to this buffer at the indicated concentrations. Regeneration of the phospholipid bilayer after dissociation phase was carried out using 20 mM NaOH. For competition SPR, increasing molar amounts of dioctanoyl PtdIns(4,5)P2 were preincubated with 5 μM N-PTB for 20 min at room temperature. The entire reaction was then exposed to an L1 sensorchip containing immobilized sulfatide liposomes (˜0.5 mM).

[3] = CD spectroscopy, secondary structure composition; assay type: physicochemical; conditions: 5 μM construct, DICHROWEB/CDSSTR
Protocol: Spectra were collected using a Jasco J-720 spectropolarimeter. Far-UV CD spectra were measured for Dab2 PTB constructs (5 μM in 5 mM Tris, 100 mM potassium fluoride, 100 μM DTT, pH 6.8) using a 1 mm-slit-width cuvette. Five accumulated scans were recorded for each sample between 190 and 260 nm at 20° C. in increments of 0.5 nm. Background of buffer alone was subtracted from each spectrum. Raw data were converted to mean residue ellipticity and analyzed for secondary structure composition using DICHROWEB and deconvoluted using CDSSTR.

[4] = tested on: platelet and leukocyte mixtures; test: Platelet-leukocyte aggregation assay (flow cytometry, CD42b on leukocytes); assay type: cell-based, human; conditions: ADP 30 μM, sulfatide liposomes
Protocol: Whole blood was collected as indicated above and centrifuged at 200 g to separate the blood from plasma and red blood cell fractions. Plasma and buffy coat layer were carefully removed and diluted 1:1 with PBS. The dilution was then layered onto a Ficoll Plus gradient and spun at 200 g for 20 min. The enriched platelet and leukocyte layer was removed, diluted with PBS, centrifuged and the pellet resuspended in Tyrode's Albumin buffer to a concentration of ˜3×10^5 platelets/μL and 3×10^3 leukocytes/μL. Isolated platelet-leukocyte mixtures were remained unactivated or activated with ADP (30 μM). Both unactivated and activated platelets were incubated for 10 min at 23° C. with liposomes (50 μg/mL) either without (liposomes control) or with sulfatides, and N-PTB constructs (1 μM). Reactions were fixed with 1% formalin and incubated with APC-labeled CD42b (Biolegend) and FITC-labeled CD45 (Biolegend) antibodies. Bound antibodies were quantified using a FacsAria flow cytometer.
Platelet P-selectin mediates platelet-leukocyte interactions through binding of leukocyte PSGL-1 (Merten 2005). […] Platelet binding of leukocytes was quantified through the fluorescence of allophycocyanin (APC) labeled anti-human CD42b (platelet marker) detected on leukocytes. The fluorescence was detected using flow cytometry analysis of platelet-leukocyte mixtures.

[5] = tested on: Human washed platelets; test: Platelet adhesion assay; assay type: cell-based; conditions: 1.9 μM, TRAP
Protocol: Human washed platelets were incubated with BSA, Dab2 PTB or Dab2 PTB^4M (1.9 μM each) for 5 min at room temperature in the presence of 0.25 g/L fibrinogen. Aggregation was initiated by the addition of 10 μM TRAP, and reactions were incubated 20 min at 37° C. Samples were fixed with 3.7% formaldehyde in PBS, stained with Wright stain, and photographed. Wright stain was eluted with 20% ethanol, and absorbance was quantified at 415 nm.

B1: N-PTB: N-terminal phosphotyrosine binding domain (residues 1-241) of human Disabled-2 (Dab2), expressed as GST-fusion in E. coli (protein)
chain: MSNEVETSATNGQPDQQAAPKAPSKKEKKKGPEKTDEYLLARFKGDGVKYKAKLIGIDDVPDARGDKMSQDSMMKLKGMAARGRSQGQHKQRIWVNISLSGIKIIDEKTGVIEHEHPVNKISFIARDVTDNRAFGYVCGGEGQHQFFAIKTGQQAEPLVVDLKDLFQVIYNVKKKEEEKKKIEEASKAVENGSEALMILDDQTNKLKSGVDQMDLFGDMSTPPDLNSPTESKDILLVDLNS
- localization at the platelet surface ([1]; 3 min after TRAP stimulation): clearly localized at the platelet surface
- internalization ([1]; 10 min after activation): internalized
- IC50 [2]: ~2000 nM
- Helix 1 [3]: 8%
- Helix 2 [3]: 10%
- Strand 1 [3]: 17%
- Strand 2 [3]: 10%
- Turns [3]: 23%
- Unordered [3]: 31%
- inhibition of platelet-leukocyte binding [4]: decreased platelet binding to leukocytes
- inhibition of platelet-leukocyte binding ([4]; listed as N-PTB^4M): no inhibition of platelet-leukocyte binding
- effect on platelet adhesion to fibrinogen [5]: did not significantly affect platelet adhesion to fibrinogen
